Assay: yeast display, Sf9 membrane polyspecificity reagent, FACS + sequencing; frameworks hold sequencing errors
Summary of the method: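 Nanobodies came from a synthetic yeast display library in Saccharomyces cerevisiae BJ5465, induced with galactose for 36–48 hours and stained for 1 hour at 4 °C with 10% biotinylated, detergent-solubilized Sf9 membrane reagent. Cells were enriched on streptavidin microbeads and then FACS-sorted, with low and high (top ~1%) gates set on anti-HA fluorescence for expression and streptavidin fluorescence for reagent binding. Each polyreactivity label reflects the gate a clone came from. Genes were amplified by colony PCR, sequenced by MiSeq 2 × 250 and filtered by CDR length.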

| Sequence | polyreactivity (PSR sort gate) |
| --- | --- |
| QVQLVESGGGLVQAGGSLRLSCAASGSTLVYNDMGWYRQAPGKERELVAAISSGASTYADSVKGRFTISRDNAKNTVYLQMNSLKPEDTAVYYCAKDIKLGPVGHSKYHRYDYWGQGTQVTVSS | low polyreactivity |
| QVQLVESGGGLVQAGGSLRLSCAASGSTLVYYDMGWYRQAPGKEREFVAAITISGGRTYYADSVKGRFTISRDNAKNTVYLQMNSLKPEDTAVYYCAADTDRRSPFDYWGQGTQVTVSS | high polyreactivity |
| QVQLVESGGGLVQAGGSLRLSCAASGSTLYDYAMGWYRQAPGKERELVAAINGSGGSTYYADSVKGRFTISRDNAKNTVYLQMNSLKPEDTAVYYCAAATTHRRRYGYWGQGTQVTVSS | low polyreactivity |
| QVQLVESGGGLVQAGGSLRLSCAASGSTLYDYTMGWYRQAPGKERELVAAIRVSGARTFYADSVKGRFTISRDNAKNTVYLQMNSLKPEDTAVYYCAARWYIANPLSPSDYWGQGTQVTVSS | low polyreactivity |
| QVQLVESGGGLVQAGGSLRLSCAASGSTLYGNVMGWYRQAPGKERELVATINRGGSTNYADSVKGRFTISRDNAKNTVYLQMNSLKPEDTAVYYCAARGFAWYYLEDYWGQGTQVTVSS | low polyreactivity |
| QVQLVESGGGLVQAGGSLRLSCAASGSTLYGYAMGWSRQAPGKERELVAAISDSGGNTYYADSVKGRFTISRDNAKNTGYLQMNSLKPEDTAVYYCAAEDIVFPYDYWGQGTQVTVSS | low polyreactivity |
| QVQLVESGGGLVQAGGSLRLSCAASGSTLYHSTMGWYRKAPGKETELVAAITWSGGSTSYADSVKGRFTISRDNAKNTVYLQMNSLKPEDTAVYYCAADDTPDDSDYWGQGTQVTVSS | low polyreactivity |
| QVQLVESGGGLVQAGGSLRLSCAASGSTLYKYAMVWYRQAPGKEREFVAAITRSGGSTYYADSVKGRFTISRDNAKNTVDLQMNSLKPEDTAVYYCAARVRVYSGWLYNYWGQGTQVTVSS | high polyreactivity |
| QVQLVESGGGLVQAGGSLRLSCAASGSTLYRYAMGWYRQAPGKERELVAAISSSGGSTYYADSVKGRFTISRDNAKNTVYLQMNSLKPEDTAVYYCAAYFSTAPKSQYKLDYWGQGTQVTVSS | high polyreactivity |
| QVQLVESGGGLVQAGGSLRLSCAASGSTLYSYAMGWYRQAPGKERELVAAIRRDSGRTYYADSVKGRFTISRDNEKNTVYLQMNSLKPEDTAVYYCAAAYRLGYHKYYYWGQGTQVTVSS | high polyreactivity |
| QVQLVESGGGLVQAGGSLRLSCAASGSTLYVYAMGWYRQAPGKEREFVADISWSGGSTYYADSVKGRFTISRDNAKNTVYLQMNILKPEDTAVYYCNADFTDSYWSRYDYWGQGTQVTVSS | low polyreactivity |
| QVQLVESGGGLVQAGGSLRLSCAASGSTLYVYAMGWYRQAPGKERELVAAITRGSRTSYADSVKGRFTISRDNAKNTVYLQMNSLKPEDTAVYYCNADTILWFLPPQKRDYWGQGTQVTVSS | low polyreactivity |
| QVQLVESGGGLVQAGGSLRLSCAASGSTLYVYTMGWYRQAPGKERELVAGITRGGSTYYADSVKGRFTISRDNAKNTVYLQMNSLKPEDTAVYYCAARSSYREYYWGQGTQVTVSS | high polyreactivity |
| QVQLVESGGGLVQAGGSLRLSCAASGSTLYVYTMGWYRQAPGKERELVATINTSGSRTYYADSLKGRFTISRDIAKNTVYLQMNSLKPEDTAVYYCNARSSRWFYGYNYWGQGTQVTVSS | high polyreactivity |
| QVQLVESGGGLVQAGGSLRLSCAASGSTLYWYAMGWYRQAPGKERELVASISWSGGSTYYADSVKGRFTISRDNAKITVYLQMNSLKPEDTAVYYCDAVRHYHGTWYDYWGEGTQVTVSS | high polyreactivity |
| QVQLVESGGGLVQAGGSLRLSCAASGSTMDYNAMGWYRQAPGKERELVAAITNGGSTTYADSVKGRFTISRDNAKNTVYLQMNSLNPEDTAVYYCAAKWYPQLWFWKFLTYNYWGQGPQVTVSS | low polyreactivity |
| QVQLVESGGGLVQAGGSLRLSCAASGSTNSQYAMGWYRQAPGKERELVAAITTSDGSTNYADSVKGRFTISRDNAKNTVYLQMNSLKPEDTAVYYCNTEYFYFSFGYWGQGTQVTVSS | low polyreactivity |
| QVQLVESGGGLVQAGGSLRLSCAASGSTRYYMGWYRQAPGKEREMVAAISKSGGTTYYADSVKGRFTISRDNAMTTVYLQMTSLKPEDTAVYYCAAQRSRSYTYDYWGQGTQVTVSS | high polyreactivity |
| QVQLVESGGGLVQAGGSLRLSCAASGSTSDENAMGWYRQAPGKERELVASITVSGGSTSYADSVKGRFTISRDNAKNTVYLQMNSLKPEDTAVYYCNTDFGQAHTLSWYEDMDYWGQGTQVTVSS | low polyreactivity |
| QVQLVESGGGLVQAGGSLRLSCAASGSTSDINAMGWYRPAPGKERELVAVITFSGGTTNYADSVKGRFTISRDNAKNTVYLQMNSLKPEDTAVYYCNADTLTTTRRFNPYDYWGQGTQVTVSS | low polyreactivity |
| QVQLVESGGGLVQAGGSLRLSCAASGSTSDINAMGWYRQAPGKERELVAVITFSGGSTNYADSVKGRFTISRDNAKNTVYLQMNSLKPEDTAVYYCSTSGQLYYSRNFDYWGQGTQVTVSS | low polyreactivity |
| QVQLVESGGGLVQAGGSLRLSCAASGSTSDSNAMGWSRQAPGKERELVAAITYSGDSTYYAYSVKGRFTISRDNAKNTVYLQMNSLKPEDTAVYYCATETYPSYEVDYWGQGTQVTVSS | low polyreactivity |

| Sequence | polyreactivity (PSR sort gate) |
| --- | --- |
| QVQLVESGGGLVQAGGSLRLSCAASGSTSFLYALGWYRQAPGKERELVAAISRSGGTTYYADSVKGRFTISRDNAKNTVYLQMNSLKPEDTAVYYCNAVGPKRYDYWGQGTQVTVSS | high polyreactivity |
| QVQLVESGGGLVQAGGSLRLSCAASGSTSKGYAMGGYRQAPGKDRELVAAISAGGGRTYYADSVKGRFTISRENAKNTVYLQMNSLKPEDTAVYYCANAGTIYQSPREYWGQGTQVTVSS | high polyreactivity |
| QVQLVESGGGLVQAGGSLRLSCAASGSTSKSYTMGWYRQAPGKERELVAAISYSGVSTYYADSVKGRFTISRDNAKNTVYLQMNSLKPEDTAVYDGAADWVPRQYPGRGGYWGQGTQVTVSS | high polyreactivity |
| QVQLVESGGGLVQAGGSLRLSCAASGSTSLYYAMGWYRQAPGKEREFVAAITWSGGSTYYADSVKGRFTISRDNAKNTVYLQMNSLKPEDTAVYYCAARSYGYSAGYYWGQGTQVTVSS | high polyreactivity |
| QVQLVESGGGLVQAGGSLRLSCAASGSTSPTNVMGWYRQAPGKERELVAAISYSGGRTYYADSVKGRFTISRDNAKNTVYLQMNSLKPEDTAVYYCNAGKRGSTYYYWGQGTQVTVSS | high polyreactivity |
| QVQLVESGGGLVQAGGSLRLSCAASGSTSQINAMGWYRQAPGKERELVAAITWSGDSTYYADSVKGRFTISRDNAKNTVYLQMNSLKPEDTAVYYCAAVSRYFSTYLYDYWGQGTQVTVSS | low polyreactivity |
| QVQLVESGGGLVQAGGSLRLSCAASGSTSRGYAMAWYRQAPGKERELFASITLSGGNTYYADSVKGRFTISRDNAKNTVYLQMNSLKPEDTAVYYCAADDRGSSYGHFTVEYGYWGQGTQVTVSS | low polyreactivity |
| QVQLVESGGGLVQAGGSLRLSCAASGSTSRTYAMGWYRQAPAKERELVAASSSSGGRTYYADSVKGRFTISRDNAKNTVYLQMNSMKPEDTAVYYCNARTYSYRGYNYWGQGTQVTVSS | high polyreactivity |
| QVQLVESGGGLVQAGGSLRLSCAASGSTSSNNAMGWYRQAPGKERELVADISTNGDSTSYADSVKGRFTISRDNAKNTVYLQMNSLKPEDTAVYYCAASTYVTYWEYDFWGQGTQVTVSS | low polyreactivity |
| QVQLVESGGGLVQAGGSLRLSCAASGSTSTLYAMGWYRQAPGKERELVAAISKSGGRTYYADSVKGRFTISRDNAKNTVYLQMNSLKPEDTAVYYCNTVPGRYRTFDYWGQGTQVTVSS | high polyreactivity |
| QVQLVESGGGLVQAGGSLRLSCAASGSTSTRNAMGWYRPAPGKERELVAAITSGGNTYYADSVKGRFTISRDNAKNTVYLQMNSLKPEDTAVYYCAAASPGPWRYDYWGQGTQVTVSS | high polyreactivity |
| QVQLVESGGGLVQAGGSLRLSCAASGSTSVPYAMGWYRQAPGKERELVAAITIGGSTNYADSVKGRFTISRDNAKNTVYLQMNSLKPEDTAVYYCNAVLTQYWKLVRYYGVDYWGQGTQVTVSS | low polyreactivity |
| QVQLVESGGGLVQAGGSLRLSCAASGSTSVQYAMGWYRQAPVKERELVAAIDRSGGSTSYADSVKGRFTISRDNANNTVYLQMNSLKPEDTAVYYCNADPVRSTYSYDYWGQGTQVTVSS | low polyreactivity |
| QVQLVESGGGLVQAGGSLRLSCAASGSTSVVNTMGWYRQAPGKERELVAAISWSGGSTYYADSVKGRFTISRDNAKNTVYLQMNSLKPEDTAVYYCNAQRNFKSITEYDYWGQGTQVTVSS | high polyreactivity |
| QVQLVESGGGLVQAGGSLRLSCAASGSTSYLYPMGWDRQAPGKERELVAAISWNGGSTYYADSVKGRFTISLDNAKNTVYLQMNSLKPEDTAVYYCAASVHATSFSGGRHWFKLYYWGQGTQVTVSS | high polyreactivity |
| QVQLVESGGGLVQAGGSLRLSCAASGSTSYNAMGWYRQAPGKERELVAAISDGGGSTYYADSVKGRFTISRDNAKNTVYLQMISLKPEDTAVYYCAADTITGDGYWAQGTQVTVSS | low polyreactivity |
| QVQLVESGGGLVQAGGSLRLSCAASGSTSYNYVMGWYRQAPGKERELVAAISFTDGTTYYADSVKGRFTISRDNAKNTVYLQMNSLKPEDTAVYYCAAGYTGYTYTEMDYWGQVTQVTVSS | low polyreactivity |
| QVQLVESGGGLVQAGGSLRLSCAASGSTSYSYMGWYRQAPGKERELVAAIDESGGSTYYADSVKGRFTISRDNAKNTVYLQMNSLKPEDTAVYYCNRRYGRSYRWGYGYWGQGTQVTVSS | low polyreactivity |
| QVQLVESGGGLVQAGGSLRLSCAASGSTSYVYAMGWYRQAPGKERELVAAISGSGGRTYYADSVKGRFTISRDNAKNTVYLQMNSLKPEDTAVYYCNALPRPSYPFDYWGQGTQVTVSS | high polyreactivity |
| QVQLVESGGGLVQAGGSLRLSCAASGSTVEYNAMGGYRPATGKERELVAAITSGGSTTYADSVKGRFTISRDNAKNTVYLQMNSLKPEDTAVYYCAAVGRRVSAWYYYWGQGTQVTVSS | high polyreactivity |
| QVQLVESGGGLVQAGGSLRLSCAASGSTVNKYAMGWYRHAPGKERELVAAITTSGGRTYYADSVKGRFTISRDNAKNTVYLQMNSLKPEDTAVYYCNARIRRNYAYPKGESWGQGTQVTVSS | high polyreactivity |
